{
  "source": "paper PMC4003184",
  "about": "(The Journal of General Physiology, 2014)",
  "binders": {"B1": {"name": "AKAP150 fused to EGFP (natural protein, UniProt P24587 1-714, looked up)", "chain": "METSVSEIQIETKDEKRPEAASPQKERQERKTATLCFKRRKKVNKKKAKAGSKTAEETEKHAPEAGGSGQRQPAGAWASIKRLVTHRKPSESAEKQKPSEAEMQPEDGALPKKKTKSKLKIPCIRFSRGAKRSRPSKLTEDSGYVRVQGEADDLEIKAQIQPDEQATQAKSTQGLQEDVIVRDGKEIQESHISNNVISGEHVIGIELELEKESSALRMRTPGSEKEAKVILVKQGVQVQEASVLENSAADSPQPVTSTAPLSPATTHQLGLEEPSDSIRESAPSGKDDGRRKTAAEEKKSGETALGQAEEASSVSQADKSVLSQAEEATVGHTEEATVIQAQSQAKEGKLSQAEEATVAQAKETVLSQAEEVKLSQIEEPAISQAKKATVGQAKEAYVSQAEEAIVGHTEKATMGQAEEATVGHIEKTTVGQAEEATVGQAEEATVGQAEEATVGQAEEATVGQAEEATVGQAGEATVSHIEKTTVGQAEEAIVGQAEEATVGQAEEATVGQAEEATVGQAEEATVDQAEEATVGQAEEATVGQAGEAAVGQAEEAIVAQAEEATVGQAGEATVGQAEKATVGQAEEPIVGQAEETVLRHASDLKVNGVDAEKPRSEESKRMEPIAIIITDTEISEFDVKKSKNVPKQFLISMENEQVGVFANDSDFEGRTSEQYETLLIETASSLVKNAIELSVEQLVNEMVSEDNQINTLFQ"}},
  "target": "mouse TRPV4 fused to mCherry (mouse, UniProt Q9EPK8 1-871)",
  "sequence (Q9EPK8 whole entry, the tested form may be a part)": "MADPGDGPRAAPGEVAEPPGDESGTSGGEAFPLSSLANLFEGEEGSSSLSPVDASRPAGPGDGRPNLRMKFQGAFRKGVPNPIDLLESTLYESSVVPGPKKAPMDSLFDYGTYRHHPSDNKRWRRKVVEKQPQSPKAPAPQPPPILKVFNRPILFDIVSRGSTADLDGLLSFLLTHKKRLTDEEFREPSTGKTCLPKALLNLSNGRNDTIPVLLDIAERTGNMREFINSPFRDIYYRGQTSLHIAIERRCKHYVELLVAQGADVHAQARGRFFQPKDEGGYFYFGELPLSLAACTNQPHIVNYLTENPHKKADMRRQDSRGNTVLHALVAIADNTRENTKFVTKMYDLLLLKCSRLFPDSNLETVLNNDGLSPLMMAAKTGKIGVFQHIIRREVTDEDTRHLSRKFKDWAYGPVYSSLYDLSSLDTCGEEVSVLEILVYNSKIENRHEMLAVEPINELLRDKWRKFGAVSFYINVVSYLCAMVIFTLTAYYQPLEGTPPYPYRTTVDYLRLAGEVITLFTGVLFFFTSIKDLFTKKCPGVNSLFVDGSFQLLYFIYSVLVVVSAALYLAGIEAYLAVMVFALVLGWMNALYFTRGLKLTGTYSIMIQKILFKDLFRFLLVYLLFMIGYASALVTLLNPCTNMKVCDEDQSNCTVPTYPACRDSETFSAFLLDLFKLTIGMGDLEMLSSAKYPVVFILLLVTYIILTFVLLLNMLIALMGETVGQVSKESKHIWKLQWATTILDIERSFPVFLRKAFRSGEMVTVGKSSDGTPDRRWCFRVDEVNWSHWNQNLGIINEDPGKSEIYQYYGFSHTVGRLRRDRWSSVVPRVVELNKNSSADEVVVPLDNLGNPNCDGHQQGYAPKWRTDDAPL",
  "assay": "cross-correlation raster image correlation spectroscopy",
  "data": [
    {"binder": "B1", "values": [
      {"measurement": "cross-correlation ratio (Gcc/[mean of G_(TRPV4) and G_(AKAP)])", "result": 0.4}
    ]}
  ]
}
